Assay results reported in the Human Domainome abundance scans (Beltran et al. 2025).
± gives the uncertainty stated by the source.

B1: Ubiquitin-protein ligase residues 30 to 86; numbered along this chain, Q05086 (parent)
chain: KHLIERYYHQLTEGCGNEACTNEFCASCPTFLRMDNNAAAIKALELYKINAKLCDPH

Variants of: B1
Assay: abundance fitness (aPCA) (normalised: wild type 0, dead -1); higher = more abundant; growth selection in yeast, the domain comes from the species named
Settings: Homo sapiens

Abundance fitness of substitutions, site by site:
E5: Q 0.037 ± 0.1; V -0.211 ± 0.048; C -0.125 ± 0.049; L -0.123 ± 0.045; W -0.08 ± 0.094
E18: W -0.151 ± 0.075; D -0.004 ± 0.087; G -0.054 ± 0.053; V -0.023 ± 0.058; N 0.061 ± 0.13; L -0.056 ± 0.06; F -0.181 ± 0.13; S 0.001 ± 0.064; A 0 ± 0.063; T -0.003 ± 0.077; R -0.066 ± 0.056; H 0.014 ± 0.097; I -0.075 ± 0.15; M 0.006 ± 0.09; K -0.089 ± 0.084; Y -0.071 ± 0.11; Q 0.076 ± 0.075; C -0.044 ± 0.089
E23: L -0.106 ± 0.065; Q -0.019 ± 0.087; H -0.09 ± 0.1; C -0.082 ± 0.093; P -0.105 ± 0.087; R -0.045 ± 0.055; T -0.022 ± 0.081; S -0.001 ± 0.064; A -0.077 ± 0.058; W -0.134 ± 0.072; K -0.054 ± 0.078; G -0.045 ± 0.048; M -0.021 ± 0.079; F -0.084 ± 0.11; D -0.062 ± 0.07
E13: I -0.048 ± 0.086; Y -0.01 ± 0.099; P -1.02 ± 0.1; Q 0.06 ± 0.082; K 0.041 ± 0.075; V -0.071 ± 0.053; R -0.02 ± 0.056; T -0.009 ± 0.061; W -0.163 ± 0.073; D 0.055 ± 0.087; H -0.006 ± 0.1; L 0.006 ± 0.053; A 0.029 ± 0.058; M -0.093 ± 0.075; F -0.047 ± 0.099; S 0.008 ± 0.056
R6: K 0.029 ± 0.054; Y -0.209 ± 0.05; M -0.079 ± 0.054; H -0.027 ± 0.046; C -0.271 ± 0.058; S -0.026 ± 0.041; W -0.292 ± 0.072; P 0.011 ± 0.044; F -0.147 ± 0.05; V -0.044 ± 0.051; N -0.006 ± 0.051; E -0.078 ± 0.071; I -0.151 ± 0.05; T -0.017 ± 0.043; L -0.097 ± 0.041; D -0.028 ± 0.058; A -0.021 ± 0.051
C20: S -0.821 ± 0.078; N -1.1 ± 0.31; D -0.883 ± 0.45; M -1.08 ± 0.12; Y -0.717 ± 0.36; F -0.889 ± 0.16; L -1.03 ± 0.091; V -1.02 ± 0.083; Q -0.893 ± 0.37; W -0.98 ± 0.088; G -0.86 ± 0.061; I -0.941 ± 0.22; K -1.13 ± 0.26; P -1.03 ± 0.12; E -1.02 ± 0.25
T12: V -0.028 ± 0.058; W -0.359 ± 0.069; G -0.569 ± 0.055; Q -0.079 ± 0.071; S -0.039 ± 0.063; M 0.03 ± 0.077; R -0.073 ± 0.052; A -0.128 ± 0.058; E -0.355 ± 0.079; I -0.062 ± 0.074; P -0.998 ± 0.11; F -0.204 ± 0.12; L -0.015 ± 0.056; D -0.353 ± 0.1
I4: N -0.042 ± 0.076; T 0.064 ± 0.072; P -0.093 ± 0.071; A -0.027 ± 0.057; Y -0.029 ± 0.083; E -0.032 ± 0.063; M -0.087 ± 0.079; K 0.059 ± 0.084; R 0.004 ± 0.051; W -0.208 ± 0.076; Q 0.058 ± 0.089; F -0.15 ± 0.093; V -0.047 ± 0.054; G -0.117 ± 0.045; S 0.012 ± 0.059; L -0.159 ± 0.061; D -0.116 ± 0.077; C -0.113 ± 0.084
H9: M -0.013 ± 0.07; E -0.131 ± 0.067; L 0.093 ± 0.06; A 0.007 ± 0.062; I 0.015 ± 0.12; W -0.055 ± 0.059; G -0.008 ± 0.049; Y -0.123 ± 0.066; D -0.189 ± 0.091; R 0.025 ± 0.047; F -0.12 ± 0.088; K 0.077 ± 0.066; T 0.032 ± 0.063; S 0.017 ± 0.061; Q 0.05 ± 0.072; C -0.034 ± 0.071; P -0.771 ± 0.097; V -0.014 ± 0.059
C15: Q -0.85 ± 0.098; F -0.885 ± 0.12; G -0.973 ± 0.091; L -1 ± 0.084; N -0.981 ± 0.12; H -0.576 ± 0.1; A -0.789 ± 0.062; P -1.09 ± 0.14; S -1.07 ± 0.094; W -0.969 ± 0.099; T -0.833 ± 0.093; Y -0.944 ± 0.1; E -0.943 ± 0.18; D -0.796 ± 0.1; M -1.04 ± 0.12; R -0.912 ± 0.072
Y7: D -0.683 ± 0.13; C -0.65 ± 0.08; Q -0.781 ± 0.1; K -0.796 ± 0.096; N -0.658 ± 0.2; G -0.77 ± 0.05; M -0.215 ± 0.075; S -0.799 ± 0.066; W -0.184 ± 0.069; F -0.034 ± 0.1; E -0.963 ± 0.096; A -0.448 ± 0.06; R -0.925 ± 0.064; H -0.289 ± 0.11; L -0.154 ± 0.06
